# B1: CNTF: human ciliary neurotrophic factor; recombinant human and rat CNTF (protein, UniProt P26441 1-200, looked up)
# Ciliary neurotrophic factor: MAFTEHSPLTPHRRDLCSRSIWLARKIRSDLTALTESYVKHQGLNKNINLDSADGMPVASTDQWSELTEAERLQENLQAYRTFHVLLARLLEDQQVHFTPTEGDFHQAIHTLLLQVAAFAYQIEELMILLEYKIPRNEADGMPINVGDGGLFEKKLWGLKVLQELSQWTVRSIHDLRFISSHQTGIPARGSHYIANNKKM
# Key:
# [1] = system: PC12 cells; assay: Protection of PC12 cells from apoptosis induced by trophic factor withdrawal (DAPI, TUNEL); assay type: cell-based; conditions: serum-free RPMI-1640/0.2% BSA, 17 hours, DAPI or TUNEL
# Source text: PC12 cells were obtained from ATCC (Manassas, Va. (Accession No. CRL-1721)) and cultured on collagen-coated dishes in RPMI 1640 supplemented with 10% horse serum and 5% fetal bovine serum (Greene, L., and Tishler, A., Proc. Natl. Acad. Sci. USA, 73:2424-2428 (1976)). For differentiation and survival experiments, cells were washed three times in serum-free RPMI/0.2% BSA, plated in the same medium in collagen-coated plastic dishes at 2×10^5/ml, without and with growth factors, TS, recombinant proteins, synthetic peptides, for the time and concentrations indicated in the Figures.
# Cell staining with 4,6-diamino-2-phenylindole (DAPI). Cells were fixed with 4% formaldehyde in PBS for 5 minutes, washed with PBS, stained with 10 μg/ml DAPI (Sigma) for 2 minutes, washed with PBS, and visualized under UV light using a fluorescent microscope. About 300-400 cells were examined under the microscope to determine the percentage of apoptotic cells.
# Cell DNA nick end labeling (TUNEL) (Gavrieli, Y. et al., J. Cell. Biol., 119:493-501 (1992)) assay was performed using a kit purchased from Boehringer Mannheim as described by the manufacturer.
# Protection against apoptosis of PC12 cells in serum-free medium containing a test agent (agent N) (e.g., protection induced by TS, TS fragments, NGF or other growth factors), was calculated by the formula: 100%−[(apoptosis(%) of cells kept in RPMI containing test agent N÷apoptosis (%) of cells kept in RPMI)×100%]. Testing the effect of Wortmannin (Sigma) and LY294002 (Sigma) in inhibiting the neuroprotection of TS was performed following the protocol described by others (Yao, R., and Cooper, G., Science, 267:2003-2006 (1995); D'Mello, et al., J. Neurosci., 17:1548-1560 (1997)). In brief, PC12 cells were switched from growth medium to RPMI without and with TS or various other growth factors. After 24 hours, Wortmannin and LY294002 were added to the cultures. After another 24 hours, cells were examined for apoptosis by the DAPI assay, as above.
# [2] = system: Bcl-2; assay: Bcl-2 gene expression in PC12 cells by RT-PCR; assay type: cell-based, rat; conditions: TS 2.5 ng/ml, CNTF 50 ng/ml, alone or combined, 17 hours
# Protocol: Total RNA was extracted from PC12 cells by the acid guanidinum isothiocyanate method (Chomchinski, P., Biotechniques, 15:532-535 (1993)) using TRI-reagent (Molecular Research Center, Inc.) cDNA synthesis was performed according to the instruction of the manufacturer (Gibco-BRL). Reverse transcription reactions were carried out for 50 minutes at 42° C. and were heated to 70° C. for 15 minutes to terminate the reaction using a MiniCycler (MJ Research). Samples were cooled to 4° C. and stored at −20° C. until use.
# PCR reactions were performed in 50 μl containing 1.5 μl of template DNA (corresponding to cDNA synthesized from 100 ng of total RNA), 1×PCR buffer, 100 μM of deoxynucleotides, 2.5 mM MgCl2, 10 mM DTT, 10 μM of Bcl-2 primers, and 2 U of Taq DNA polymerase (Gibco-BRL). The synthetic DNA primers for the rat Bcl-2 were: 5′-[…]-3′ (SEQ ID NO:8) and 5′-[…]-3′ (SEQ ID NO:9) to give a PCR product of 566 bp. The sequences for synthetic GAPDH DNA primers (Wong, H. et al., Anal. Biochem., 223: 251-258 (1994)) were: 5′-[…]-3′ (SEQ ID NO:10) and 5′-[…]-3′ (SEQ ID NO:11) giving a PCR produce of 306 base pairs. […] Gels were analyzed by computerized densitometric scanning using Gel doc 1000 (Bio Rad) and Molecular Analyst Software, version 2.1.
molecule,measurement,setting,value
B1,protection of PC12 cells from apoptosis induced by trophic factor withdrawal,[1],"produced little, if any, protection"
same,bcl-2 mRNA expression in PC12 cells,[2],did not induce bcl-2 gene expression individually

# — US20090117593A1, “T. Cruzi-derived neurotrophic agents and methods of use therefor” (Tufts University, priority 2006, published 2009)
